In patent US20130005646A1 (Novo Nordisk, published 2013):
Starred links: 1 amine or outer side, 2 acyl side, 3 side chain; linkers in the order of their positions; H or OH if unused. Positions of bridges follow the written chain, without caps; N, C: chain ends. *: point of attachment. C20 diacid = O=C(O)CCCCCCCCCCCCCCCCCCC(=O)*; 19‑carboxyheptadecanoyl = not defined here; γGlu = O=C(O)[C@H](CCC(=O)[*:2])N[*:1]; AEEA = NCCOCCOCC(=O)O

T1: human amylin 3(a) receptor (human calcitonin receptor + RAMP-3) (human, UniProt P30988 25-474; O60896 24-148)
T1 sequence (looked up) 1: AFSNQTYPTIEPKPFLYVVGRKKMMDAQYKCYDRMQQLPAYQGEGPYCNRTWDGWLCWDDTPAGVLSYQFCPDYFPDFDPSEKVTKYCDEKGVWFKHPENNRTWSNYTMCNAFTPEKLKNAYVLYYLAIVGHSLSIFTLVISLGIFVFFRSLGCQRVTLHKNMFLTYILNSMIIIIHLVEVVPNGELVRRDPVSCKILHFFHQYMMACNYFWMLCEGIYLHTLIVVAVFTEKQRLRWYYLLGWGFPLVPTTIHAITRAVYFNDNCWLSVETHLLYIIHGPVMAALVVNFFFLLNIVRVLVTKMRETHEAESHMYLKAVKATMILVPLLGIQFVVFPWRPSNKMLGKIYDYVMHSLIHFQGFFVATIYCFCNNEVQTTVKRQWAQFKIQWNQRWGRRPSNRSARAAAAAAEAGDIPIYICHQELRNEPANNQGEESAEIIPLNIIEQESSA
T1 sequence (looked up) 2: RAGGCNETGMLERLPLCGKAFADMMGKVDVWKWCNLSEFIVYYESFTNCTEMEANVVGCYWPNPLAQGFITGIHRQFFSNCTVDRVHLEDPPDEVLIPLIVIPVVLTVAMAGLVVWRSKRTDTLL

T2: human calcitonin (a) receptor (human, UniProt P30988 25-474)
T2 sequence (looked up): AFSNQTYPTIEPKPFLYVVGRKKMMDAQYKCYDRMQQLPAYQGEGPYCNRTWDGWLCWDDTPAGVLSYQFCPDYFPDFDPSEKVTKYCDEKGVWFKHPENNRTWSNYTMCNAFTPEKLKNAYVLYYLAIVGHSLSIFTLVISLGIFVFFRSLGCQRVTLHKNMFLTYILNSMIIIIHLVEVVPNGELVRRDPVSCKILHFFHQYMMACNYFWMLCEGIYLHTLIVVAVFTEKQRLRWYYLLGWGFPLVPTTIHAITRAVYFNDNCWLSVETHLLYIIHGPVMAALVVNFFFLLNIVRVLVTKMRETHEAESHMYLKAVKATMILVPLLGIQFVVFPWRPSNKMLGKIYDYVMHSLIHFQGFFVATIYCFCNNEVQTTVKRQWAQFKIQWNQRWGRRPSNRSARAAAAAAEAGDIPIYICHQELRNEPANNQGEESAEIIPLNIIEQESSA


What was measured:
[1] = target: T1, human amylin 3(a) receptor (human …); assay: cell-based or functional assay
[2] = target: T2, human calcitonin (a) receptor; assay: cell-based or functional assay

Amylin receptor human EC50 [1] [nM] | CTa receptor human EC50 [2] [nM] | Binder
0.487 | 0.124 | {C20 diacid-γGlu}-KCNTATCATQRLAEFLHHSSNNFGPILPPTNHGSNTY-NH2 (disulfide 2-7; SMILES CC[C@H](C)[C@H](NC(=O)[C@@H]1CCCN1C(=O)CNC(=O)[C@H](Cc1ccccc1)NC(=O)[C@H](CC(N)=O)NC(=O)[C@H](CC(N)=O)NC(=O)[C@H](CO)NC(=O)[C@H](CO)NC(=O)[C@H](Cc1c[nH]cn1)NC(=O)[C@H](Cc1c[nH]cn1)NC(=O)[C@H](CC(C)C)NC(=O)[C@H](Cc1ccccc1)NC(=O)[C@H](CCC(=O)O)NC(=O)[C@H](C)NC(=O)[C@H](CC(C)C)NC(=O)[C@H](CCCNC(=N)N)NC(=O)[C@H](CCC(N)=O)NC(=O)[C@@H](NC(=O)[C@H](C)NC(=O)[C@@H]1CSSC[C@H](NC(=O)[C@H](CCCCN)NC(=O)CC[C@H](NC(=O)CCCCCCCCCCCCCCCCCCC(=O)O)C(=O)O)C(=O)N[C@@H](CC(N)=O)C(=O)N[C@@H]([C@@H](C)O)C(=O)N[C@@H](C)C(=O)N[C@@H]([C@@H](C)O)C(=O)N1)[C@@H](C)O)C(=O)N[C@@H](CC(C)C)C(=O)N1CCC[C@H]1C(=O)N1CCC[C@H]1C(=O)N[C@H](C(=O)N[C@@H](CC(N)=O)C(=O)N[C@@H](Cc1c[nH]cn1)C(=O)NCC(=O)N[C@@H](CO)C(=O)N[C@@H](CC(N)=O)C(=O)N[C@H](C(=O)N[C@@H](Cc1ccc(O)cc1)C(N)=O)[C@@H](C)O)[C@@H](C)O) [N-alpha-[(S)-4-Carboxy-4-(19-carboxynonadecanoylamino)butyryl]-[Glu14,His17,His32]-pramlintide]
0.129 | 0.115 | {C20 diacid-γGlu}-KCNTATCATQRLAEFLHHSSNNFGPILPPTNVGHNTY-NH2 (disulfide 2-7; SMILES CC[C@H](C)[C@H](NC(=O)[C@@H]1CCCN1C(=O)CNC(=O)[C@H](Cc1ccccc1)NC(=O)[C@H](CC(N)=O)NC(=O)[C@H](CC(N)=O)NC(=O)[C@H](CO)NC(=O)[C@H](CO)NC(=O)[C@H](Cc1c[nH]cn1)NC(=O)[C@H](Cc1c[nH]cn1)NC(=O)[C@H](CC(C)C)NC(=O)[C@H](Cc1ccccc1)NC(=O)[C@H](CCC(=O)O)NC(=O)[C@H](C)NC(=O)[C@H](CC(C)C)NC(=O)[C@H](CCCNC(=N)N)NC(=O)[C@H](CCC(N)=O)NC(=O)[C@@H](NC(=O)[C@H](C)NC(=O)[C@@H]1CSSC[C@H](NC(=O)[C@H](CCCCN)NC(=O)CC[C@H](NC(=O)CCCCCCCCCCCCCCCCCCC(=O)O)C(=O)O)C(=O)N[C@@H](CC(N)=O)C(=O)N[C@@H]([C@@H](C)O)C(=O)N[C@@H](C)C(=O)N[C@@H]([C@@H](C)O)C(=O)N1)[C@@H](C)O)C(=O)N[C@@H](CC(C)C)C(=O)N1CCC[C@H]1C(=O)N1CCC[C@H]1C(=O)N[C@H](C(=O)N[C@@H](CC(N)=O)C(=O)N[C@H](C(=O)NCC(=O)N[C@@H](Cc1c[nH]cn1)C(=O)N[C@@H](CC(N)=O)C(=O)N[C@H](C(=O)N[C@@H](Cc1ccc(O)cc1)C(N)=O)[C@@H](C)O)C(C)C)[C@@H](C)O) [N-alpha-[(S)-4-Carboxy-4-(19-carboxynonadecanoylamino)butyryl]-[Glu14,His17,His34]-pramlintide]
0.156 | 0.169 | {C20 diacid-γGlu}-KCNTATCATQRLAEFLHHSSQNFGPILPPTNVGSHTY-NH2 (disulfide 2-7; SMILES CC[C@H](C)[C@H](NC(=O)[C@@H]1CCCN1C(=O)CNC(=O)[C@H](Cc1ccccc1)NC(=O)[C@H](CC(N)=O)NC(=O)[C@H](CCC(N)=O)NC(=O)[C@H](CO)NC(=O)[C@H](CO)NC(=O)[C@H](Cc1c[nH]cn1)NC(=O)[C@H](Cc1c[nH]cn1)NC(=O)[C@H](CC(C)C)NC(=O)[C@H](Cc1ccccc1)NC(=O)[C@H](CCC(=O)O)NC(=O)[C@H](C)NC(=O)[C@H](CC(C)C)NC(=O)[C@H](CCCNC(=N)N)NC(=O)[C@H](CCC(N)=O)NC(=O)[C@@H](NC(=O)[C@H](C)NC(=O)[C@@H]1CSSC[C@H](NC(=O)[C@H](CCCCN)NC(=O)CC[C@H](NC(=O)CCCCCCCCCCCCCCCCCCC(=O)O)C(=O)O)C(=O)N[C@@H](CC(N)=O)C(=O)N[C@@H]([C@@H](C)O)C(=O)N[C@@H](C)C(=O)N[C@@H]([C@@H](C)O)C(=O)N1)[C@@H](C)O)C(=O)N[C@@H](CC(C)C)C(=O)N1CCC[C@H]1C(=O)N1CCC[C@H]1C(=O)N[C@H](C(=O)N[C@@H](CC(N)=O)C(=O)N[C@H](C(=O)NCC(=O)N[C@@H](CO)C(=O)N[C@@H](Cc1c[nH]cn1)C(=O)N[C@H](C(=O)N[C@@H](Cc1ccc(O)cc1)C(N)=O)[C@@H](C)O)C(C)C)[C@@H](C)O) [N-alpha-[(S)-4-Carboxy-4-(19-carboxynonadecanoylamino)butyryl]-[Glu14,His17,Gln21,His35)-pramlintide]

More lines, now with the values behind:

Binder | Amylin receptor human EC50 [1] [nM] | CTa receptor human EC50 [2] [nM]
{C20 diacid-γGlu}-ERECNTATCATQRLANFLVHSSNNFGPILPPTNVGSNTP-NH2 (disulfide 4-9; SMILES CC[C@H](C)[C@H](NC(=O)[C@@H]1CCCN1C(=O)CNC(=O)[C@H](Cc1ccccc1)NC(=O)[C@H](CC(N)=O)NC(=O)[C@H](CC(N)=O)NC(=O)[C@H](CO)NC(=O)[C@H](CO)NC(=O)[C@H](Cc1c[nH]cn1)NC(=O)[C@@H](NC(=O)[C@H](CC(C)C)NC(=O)[C@H](Cc1ccccc1)NC(=O)[C@H](CC(N)=O)NC(=O)[C@H](C)NC(=O)[C@H](CC(C)C)NC(=O)[C@H](CCCNC(=N)N)NC(=O)[C@H](CCC(N)=O)NC(=O)[C@@H](NC(=O)[C@H](C)NC(=O)[C@@H]1CSSC[C@H](NC(=O)[C@H](CCC(=O)O)NC(=O)[C@H](CCCNC(=N)N)NC(=O)[C@H](CCC(=O)O)NC(=O)CC[C@H](NC(=O)CCCCCCCCCCCCCCCCCCC(=O)O)C(=O)O)C(=O)N[C@@H](CC(N)=O)C(=O)N[C@@H]([C@@H](C)O)C(=O)N[C@@H](C)C(=O)N[C@@H]([C@@H](C)O)C(=O)N1)[C@@H](C)O)C(C)C)C(=O)N[C@@H](CC(C)C)C(=O)N1CCC[C@H]1C(=O)N1CCC[C@H]1C(=O)N[C@H](C(=O)N[C@@H](CC(N)=O)C(=O)N[C@H](C(=O)NCC(=O)N[C@@H](CO)C(=O)N[C@@H](CC(N)=O)C(=O)N[C@H](C(=O)N1CCC[C@H]1C(N)=O)[C@@H](C)O)C(C)C)[C@@H](C)O) [N-alpha-[(S)-4-Carboxy-4-(19-carboxynonadecanoylamino)butyryl]-Glu-Arg-[Glu1,Pro37]-pramlintide] | 0.063 | 0.061
{19‑carboxyheptadecanoyl-γGlu-AEEA-AEEA}-KCNTATCATQRLAEFLHHSSSNFGPILPPTNVGSHTY-NH2 (disulfide 2-7; reading uncertain; also: printed as N-alpha-[2-(2-{2-[2-(2-{2-[(S)-4-Carboxy-4-(19-carboxyheptadecanoylamino)butyrylamino]ethoxy}ethoxy)acetylamino]ethoxy}ethoxy)acetyl]-[Glu14,His17,Ser21,His35]-pramlintide) | 0.434 | 0.277
{19‑carboxyheptadecanoyl-γGlu-AEEA-AEEA}-HCNTATCATQRLAEFLHHSSSNFGPILPPTNVGSHTY-NH2 (disulfide 2-7; reading uncertain; also: printed as N-alpha-[2-(2-{2-[2-(2-{2-[(S)-4-Carboxy-4-(19-carboxyheptadecanoylamino)butyrylamino]ethoxy}ethoxy)acetylamino]ethoxy}ethoxy)acetyl]-[His1,Glu14,His17,Ser21,His35]-pramlintide) | 0.938 | 1.08
